Measured values as given in patent US20240317865A1, “ANTIBODIES AGAINST INTEGRIN ALPHA 11 BETA 1” (MOMENTA PHARMACEUTICALS, INC., priority 2020, published 2024).
“Also recorded” adds a separate entry of the source.

Assays:
α11β1 I Domain = molecular target: T1, α11β1 I Domain (Homo sapiens, UniProt Q9UKX5); test: ELISA binding to in-house generated α11β1 I domain; parameters: An in-house generated I domain of α11β1 was used; made in house; conditions: in words
T1 sequence (Q9UKX5 164-345 limits assumed): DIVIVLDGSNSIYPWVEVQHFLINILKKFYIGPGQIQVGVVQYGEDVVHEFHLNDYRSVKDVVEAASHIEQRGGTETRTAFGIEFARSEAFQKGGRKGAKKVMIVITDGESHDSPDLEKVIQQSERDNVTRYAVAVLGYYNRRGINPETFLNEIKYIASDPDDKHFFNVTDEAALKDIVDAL
Description: 0.25 μg/mL of target antigen (recombinant human or mouse α11β1) was plated in a 96-well plate over night at 4° C. Plates were washed (PBS with 0.1% Tween-20), blocked (PBS with 2% BSA and 0.05% Tween-20) for 1 hour at room temperature and incubated with a range of antibody concentrations for 1 hour at room temperature. Subsequently, plates were washed and incubated with biotinylated anti-rabbit/mouse/human IgG in a 1:1000 dilution buffer and incubated for 1 hour at room temperature. After washing the plates, Streptavidin HRP was added at 1:200 in dilution buffer and incubated for 1 hour at room temperature. Ultra TMB ELISA substrate solution was added and the plates incubated for 5 minutes on a plate shaker. The reaction was stopped by adding stop solution to each well and plates were read at 450 nm.
Data was also collected to determine whether antibodies of interest bind to the I domain of α11β1. An in-house generated I domain of α11β1 was used. […] Mouse antibodies 10-F23, 10-L15, 7-O8, 6-A12, 9-G05 and 9-E16 and rabbit antibodies 7-H12 and 2-D3 were also tested for binding against the in-house generated α11β1 I domain. FIGS. 3A and 3B show graphs illustrating binding data from exemplary mAbs.

[1] = molecular target: T2, adhesion of CHO-K1 cells expressing human α11 to rat tail type I collagen (Homo sapiens, UniProt Q9UKX5); test: Cell adhesion inhibition (CHO-K1 hu α11 cells to type I collagen, xCelligence); assay type: cell-based; conditions: in words
T2 construct: expressed in transfected cells; host or cells: CHO-K1
T2 sequence (Q9UKX5 23-1188): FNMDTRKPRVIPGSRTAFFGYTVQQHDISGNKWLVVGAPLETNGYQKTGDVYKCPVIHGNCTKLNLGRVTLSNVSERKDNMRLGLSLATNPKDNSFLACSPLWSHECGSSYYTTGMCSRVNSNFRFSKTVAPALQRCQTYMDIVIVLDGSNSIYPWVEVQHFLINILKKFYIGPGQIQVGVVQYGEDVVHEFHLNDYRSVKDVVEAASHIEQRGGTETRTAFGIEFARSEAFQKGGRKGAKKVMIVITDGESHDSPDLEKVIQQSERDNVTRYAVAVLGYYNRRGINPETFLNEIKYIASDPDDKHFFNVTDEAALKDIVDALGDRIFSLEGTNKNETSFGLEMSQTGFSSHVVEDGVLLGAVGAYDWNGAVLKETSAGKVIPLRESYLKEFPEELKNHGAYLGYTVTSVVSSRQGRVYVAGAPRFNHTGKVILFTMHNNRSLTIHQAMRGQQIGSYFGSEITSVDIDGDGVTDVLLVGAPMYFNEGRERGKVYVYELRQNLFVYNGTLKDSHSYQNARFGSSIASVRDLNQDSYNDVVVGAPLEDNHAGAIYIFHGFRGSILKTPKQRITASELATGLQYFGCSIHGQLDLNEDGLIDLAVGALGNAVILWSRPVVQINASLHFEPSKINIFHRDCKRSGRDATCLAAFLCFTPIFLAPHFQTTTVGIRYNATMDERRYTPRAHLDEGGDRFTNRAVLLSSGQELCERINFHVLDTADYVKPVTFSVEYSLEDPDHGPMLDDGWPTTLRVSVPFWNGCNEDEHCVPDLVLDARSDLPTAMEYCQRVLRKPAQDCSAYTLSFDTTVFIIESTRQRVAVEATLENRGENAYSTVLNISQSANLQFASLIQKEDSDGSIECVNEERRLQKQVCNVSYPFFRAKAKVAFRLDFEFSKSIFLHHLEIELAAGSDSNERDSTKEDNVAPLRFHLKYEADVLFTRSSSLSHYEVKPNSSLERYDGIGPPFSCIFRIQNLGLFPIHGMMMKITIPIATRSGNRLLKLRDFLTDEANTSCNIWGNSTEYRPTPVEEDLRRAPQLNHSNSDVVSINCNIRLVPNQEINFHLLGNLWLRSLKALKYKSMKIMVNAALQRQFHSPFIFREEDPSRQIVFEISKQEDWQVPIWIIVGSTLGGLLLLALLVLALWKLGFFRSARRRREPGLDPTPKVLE
Description: 0.6×10^6 cells/mL were incubated with each antibody at a range of concentrations for 20 minutes at 37° C. E-Plate VIEW 96 PET plate coated with 100 ng/ml type I collagen or PBS overnight at room temperature was blocked in 3% BSA for 1 house at room temperature. After washing the plate with PBS, cell and antibody mixture was added to the wells and the plate was places into an xCelligence machine. Cell adhesion was recorded over 6 hours. The time point of maximum cell adhesion was used for comparison relative to control.
A CHO-K1 hu α11 cell line was used to assess the ability of mAbs to block α11β1-mediated binding to type I collagen. […] In the “Untreated” condition, cells were plated on type I collagen but no antibody was added and in the “Uncoated” condition, cells were seeded onto BSA-coated wells containing no type I collagen. Statistics were performed using one-way ANOVA followed by Dunnett's multiple comparisons test. […] Therefore, it is possible that these mAbs bind on an α11β1 domain that keeps the integrin in a low or intermediate affinity state. […] Nine human mAbs were also tested for their ability to inhibit the binding of human CHO-α11 cells to type I collagen.

[2] = tested on: CHO-K1 human α11-mediated rat tail type I collagen gel contraction; test: Collagen gel contraction assay; assay type: cell-based; conditions: compared to untreated condition
Description: 24-well plates were blocked with 2% BSA in PBS overnight at 37° C. The following day, the plates were washed 3 times with PBS before being used in the assay. Human CHO cell lines expressing α11 were harvested and resuspended at 1.25×10^6 in ExpiCHO Expression Medium (Gibco™ Cat #A2910002). The collagen gel solution was prepared by diluting 3 mg/mL stock collagen type I (Gibco™ Collagen I Rat Protein, Tail Cat #A1048301) to 1 mg/mL in the media containing the CHO cells. Sodium hydroxide was added to the solution to neutralize the pH and 400 μL of the collagen solution was added to each well of the 24-well plates. For the wells where the antibodies were included in the collagen gel solution, CHO cells were prepared at 2.5×10^6 and the antibodies were prepared at 2× final concentration in ExpiCHO media. The cells and antibodies were then combined 1:1 before the addition of the stock collagen type 1. The gels were allowed to polymerize for 60 minutes at 37° C. Antibodies were added to the ExpiCHO media, which was then layered on top of the polymerized gel (400 μL/well). The gels were incubated for 6 days at 37° C. before gel contraction was quantified. Images of each well were analyzed using Image J and gel contraction was determined as a percentage of the initial gel area.
Selected exemplary antibodies were tested for the ability to inhibit cell-mediated 3D gel contraction because this ability is directly linked to the functionality of the exemplary antibodies.

B1: 8H8E9: rat anti-α11β1 mAb; VH SEQ ID NO: 149, VL SEQ ID NO: 150 (antibody, V domains shown)
VH: MAVLVLLLCLVTFPSCALSQVQLKESGPGLVQPSQTLSLTCTVSGFSLTSNSVSWVRQAPGKGLEWMGAIWSGGSTDYNSALKSRLSISRDTSKSQVFLKMNSLQTEDTAIYFCTRSHWEPFDYWGQGVMVTVSS
VL: MESQTQALISLLLWVYGTCGDIVMTQSPFSLAVSEGEMVTINCKSSQGLLSSGNQKNYLAWYQQRPGQSPKLLIYYASTRQSGVPDRFIGGGSGTDFTLTISDVQAEDLADYYCLQHYSYPPTFGSGTKLEIK
Binding to the I domain of α11β1 (α11β1 I Domain): medium

B2: 6E5C11: rat anti-α11β1 mAb; VH SEQ ID NO: 151, VL SEQ ID NO: 152 (antibody, V domains shown)
VH: MAVLVLLLCLVTFPSCALSQVQLRESGPGLVQPSQTLSLTCTVSGFSLTSNSVTWVRQPPGKGLEWMGAIWSDGSTDYNSTLKSRLSISRDTSKSQVFLKMSSLQTEDTAIYFCTRSHWEPFDYWGQGVMVTVSS
VL: MESQTQALISLLLWVYGTCGDIVMTQSPLSLAVSEGETVTMNCKSSQSLFSSGNQKNYLAWYQQKPGQSPKLLIYYASTRQSGVPDRFIGSGSGTDFTLTISDVQTEDLADYYCLQHYNYPPTFGSGTKLEIK
Binding to the I domain of α11β1 (α11β1 I Domain): low

B3: 24E4G6: rat anti-α11β1 mAb; VH SEQ ID NO: 147, VL SEQ ID NO: 148 (antibody, V domains shown)
VH: MELELSLIFIFSLLKDVQCEVQLVESGGSLVQPGGSLKLSCVASGYTFSNYWMDWVRQSPGKSLEWIGEINTDGRRTNYAPSIKDRFTISRDNAKSTLYLQMSNVKSDDTAIYYCTILRVYPHYFDYWGQGVMVTVSS
VL: MMSPAQFLFLLMLWIQEARGDVVMTQTPPSLSVAIGQSVSISCKSSQSLVYSDGETYLHWFLQSPGRSPKRLIYHVSNLGSGVPDRFSGTGSLTDFTLRISRVEAEDLGVYYCAQTTHFPPTFGAGTKLELK
Binding to the I domain of α11β1 (α11β1 I Domain): did not bind to the I-domain

B4: 9-E16: mouse anti-α11β1 mAb; VH SEQ ID NO: 111, VL SEQ ID NO: 112 (antibody, V domains shown)
VH: EVQLQQSGPELVKPGASVKISCKASGYTFTDYYMHWVKQKPGQGLEWIGEIYPGSGNPYYNEKFKGKATLTADKSSSSAYMQLSSLTSEDSAVYFCARTSYGRVGTGFAYWGQGTLVTVSA
VL: NFVMTQTPLSLPVSLGDQASISCRSSQSLLHSNGNTYLHWYLQKPGQSPKLLIYKVSNRFSGVPDRFSGSGSGTDFTLKINRVETEDLGIYFCSQSSHVPTFGAGTKLELK
Inhibition of cell adhesion to type I collagen [1]: decrease cell adhesion to collagen
Inhibition of CHO-hu α11-mediated collagen gel contraction [2]: inhibited
Binding to the I domain of α11β1 (α11β1 I Domain): I-domain binders; also recorded: bound the I domain

B5: 8-I14: mouse anti-α11β1 mAb; VH SEQ ID NO: 109, VL SEQ ID NO: 110 (antibody, V domains shown)
VH: EVQLQQSGPELVKPGASVKKSCKASGYTFTDYYMHWVKQKPGQGLEWIGKIYPGSGNTHYNEKFKGKATLTADKSSSTAYMQLSSLTSEDSAVYFCATNYYGYRAMNYWGQGSSVTVSS
VL: DIHLTQSPSSLSASLGERISLTCRASQDIYISLNWFQQKPDGTIKLLIYGTSSLDSGVPKRFSGSRSGSDYSLTISSLESEDFADYYCLQYASSPYTFGGGTKLEIK
Inhibition of CHO-hu α11-mediated collagen gel contraction [2]: inhibited

B6: 1994_01_D12: fully human anti-α11β1 mAb from phage display; HCDR3 SEQ ID NO: 267, LCDR3 SEQ ID NO: 334 (antibody, V domains shown)
VH: QVQLVQSGAEVKKPGSSVKVSCKASGYTFTSYGISWVRQAPGQGLEWMGWISAYNGNTNYAQKLQGRVTMTTNTSTSTAYMELRSLRSDDTAVYYCARVTGITGTTIDPWGQGTLVTVSS
VL: DIQMTQSPSSLSASVGDRVTITCRASQSISSYLNWYRQKPGKAPKLLIYAASSLQSGVPSRFSGSGSGTDFTLTISSLQPEDAATYYCQQYDSQSGTFGQGTKLEIK
Inhibition of CHO-hu α11-mediated collagen gel contraction [2]: inhibited
